Consider two molecules from US20210214436A1 (DRAGONFLY THERAPEUTICS, published 2021).

This experiment deals with T1, BCMA expressed on myeloma cells (MM.1R, KMS12-PE) (human, UniProt Q02223 1-184).
T1 construct: Human multiple myeloma cell lines expressing BCMA; also called surface BCMA; MM.1R myeloma cells
T1 sequence: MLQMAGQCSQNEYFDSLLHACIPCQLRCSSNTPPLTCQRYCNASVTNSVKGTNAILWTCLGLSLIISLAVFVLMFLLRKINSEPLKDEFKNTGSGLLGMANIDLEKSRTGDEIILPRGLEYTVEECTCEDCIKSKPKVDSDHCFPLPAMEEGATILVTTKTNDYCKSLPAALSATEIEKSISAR
Briefly: flow cytometry on MM.1R cells. As to the method:
F4-TriNKETs were diluted, and were incubated with MM.1R cells. […] Cells were analyzed by flow cytometry, binding MFI to cell expressed BCMA was normalized to secondary antibody controls to obtain fold over background values.
For orientation: In flow cytometry, cells or beads pass a laser one at a time.

B1: A49-F4-TriNKET-BCMA (bispecific antibody, V domains shown)
VH 1: EVQLLESGGGLVQPGGSLRLSCAASGFTFSDNAMGWVRQAPGKGLEWVSAISGPGSSTYYADSVKGRFTISRDNSKNTLYLQMNSLRAEDTAVYYCAKVLGWFDYWGQGTLVTVSS
VL 1: EIVLTQSPGTLSLSPGERATLSCRASQSVSDEYLSWYQQKPGQAPRLLIHSASTRATGIPDRFSGSGSGTDFTLAISRLEPEDFAVYYCQQYGYPPDFTFGQGTKVEIK
VH 2: EVQLVESGGGLVKPGGSLRLSCAASGFTFSSYSMNWVRQAPGKGLEWVSSISSSSSYIYYADSVKGRFTISRDNAKNSLYLQMNSLRAEDTAVYYCARGAPMGAAAGWFDPWGQGTLVTVSS
VL 2: DIQMTQSPSSVSASVGDRVTITCRASQGISSWLAWYQQKPGKAPKLLIYAASSLQSGVPSRFSGSGSGTDFTLTISSLQPEDFATYYCQQGVSFPRTFGGGTKVEIK
notes: Only variable domains can be tied to the molecule
B1: the binding result is given as “binds”.

B2: BCMA monoclonal antibody (EM-901) (antibody, V domains shown)
VH: EVQLLESGGGLVQPGGSLRLSCAASGFTFSDNAMGWVRQAPGKGLEWVSAISGPGSSTYYADSVKGRFTISRDNSKNTLYLQMNSLRAEDTAVYYCAKVLGWFDYWGQGTLVTVSS
VL: EIVLTQSPGTLSLSPGERATLSCRASQSVSDEYLSWYQQKPGQAPRLLIHSASTRATGIPDRFSGSGSGTDFTLAISRLEPEDFAVYYCQQYGYPPDFTFGQGTKVEIK
On to B2, for which the binding result was “binds”.
